Assay results taken from article PMC3537886 (Nature structural & molecular biology, 2012).

B1: soluble HLA-DO Ig-fusion protein (sDO-Fc) (Fc fusion)
chain 1: TKADHMGSYGPAFYQSYGASGQFTHEFDEEQLFSVDLKKSEAVWRLPEFGDFARFDPQGGLAGIAAIKAHLDILVERSNRSRAINVPPRVTVLPKSRVELGQPNILICIVDNIFPPVINITWLRNGQTVTEGVAQTSFYSQPDHLFRKFHYLPFVPSAEDVYDCQVEHWGLDAPLLRHWELQVPIPPPDAME
chain 2: TDSPEDFVIQAKADCYFTNGTEKVQFVVRFIFNLEEYVRFDSDVGMFVALTKLGQPDAEQWNSRLDLLERSRQAVDGVCRHNYRLGAPFTVGRKVQPEVTVYPERTPLLHQHNLLHCSVTGFYPGDIKIKWFLNGQEERAGVMSTGPIRNGDWTFQTVVMLEMTPELGHVYTCLVDHSSLLSPVSVEWRAQSEYSWRK

Experiments:
[1] = biological target: biotinylated soluble leucine-zippered HLA-DO with αP10aA (bio-szDOv), beta chain with C-terminal Avitag (human) (UniProt P06340); test: BLI
[2] = biological target: soluble HLA-DM (sDM), wild type (human, UniProt P28067;P28068); test: enzyme inhibition kinetics

Molecule	binding affinity relative to the wild type (fold of the wild-type affinity) [1]	Ki [2] [nM]
sDM mutant αR98E,R194E (from UniProt P28067;P28068) (complex)	0.0025	
B1		290 ± 20
